Measured values as given in patent US20200079833A1 (AstraZeneca / MedImmune, published 2020).
Starred links: 1 amine or outer side, 2 acyl side, 3 side chain; linkers in the order of their positions; H or OH if unused. Non-standard residues stand in square brackets, D forms with d. Groups on a side chain read outwards from the residue. No end group written: not given here. *: point of attachment. Dodecanoyl(12-OPh(4-COOH)) = O=C(O)c1ccc(OCCCCCCCCCCCC(=O)*)cc1; γGlu = O=C(O)[C@H](CCC(=O)[*:2])N[*:1]; αMeF = C[C@](N)(Cc1ccccc1)C(=O)O; αMeK = C[C@](N)(CCCCN)C(=O)O; αMeS = C[C@](N)(CO)C(=O)O; Aib = CC(C)(N)C(=O)O; Ahx = NCCCCCC(=O)O

T1: glucose-dependent insulinotropic peptide (gastric inhibitory polypeptide) receptor (GIPR) (human, UniProt P48546 22-466)
T1 sequence (looked up): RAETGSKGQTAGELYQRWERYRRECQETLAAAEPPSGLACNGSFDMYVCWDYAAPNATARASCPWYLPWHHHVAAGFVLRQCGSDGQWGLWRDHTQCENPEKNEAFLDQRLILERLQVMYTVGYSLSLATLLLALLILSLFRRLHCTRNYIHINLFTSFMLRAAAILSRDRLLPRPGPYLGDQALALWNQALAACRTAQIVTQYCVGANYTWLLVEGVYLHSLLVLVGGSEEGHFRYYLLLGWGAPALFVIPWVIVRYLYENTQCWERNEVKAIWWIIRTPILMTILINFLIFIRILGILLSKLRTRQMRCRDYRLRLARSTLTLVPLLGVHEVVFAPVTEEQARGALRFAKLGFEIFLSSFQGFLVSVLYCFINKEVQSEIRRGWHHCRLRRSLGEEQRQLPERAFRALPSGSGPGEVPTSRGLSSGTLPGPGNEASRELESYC


Columns and labels:
Experiment in all cases: cell-based or functional assay
[1] = biological target: T1, glucose-dependent insulinotropic …
[2] = biological target: GLP-1 receptor (GLP-1R) (human, UniProt P43220 24-463)
[3] = biological target: glucagon receptor (GCGR) (human, UniProt P47871 26-477)
Chain of glucagon receptor (GCGR) (P47871 26-477): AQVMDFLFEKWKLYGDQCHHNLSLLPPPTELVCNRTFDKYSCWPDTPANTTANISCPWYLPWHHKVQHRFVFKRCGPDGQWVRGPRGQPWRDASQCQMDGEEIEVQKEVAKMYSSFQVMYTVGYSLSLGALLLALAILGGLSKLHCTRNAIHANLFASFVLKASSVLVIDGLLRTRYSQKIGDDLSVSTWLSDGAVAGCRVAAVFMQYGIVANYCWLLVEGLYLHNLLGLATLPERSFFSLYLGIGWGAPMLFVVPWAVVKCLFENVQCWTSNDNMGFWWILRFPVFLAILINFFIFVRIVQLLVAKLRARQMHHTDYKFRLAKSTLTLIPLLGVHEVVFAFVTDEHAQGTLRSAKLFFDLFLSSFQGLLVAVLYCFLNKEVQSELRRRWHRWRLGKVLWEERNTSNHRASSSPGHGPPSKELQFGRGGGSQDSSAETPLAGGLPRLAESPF

Row | Binder | cAMP Primary assay EC50 GIP-R [1] [nM] | cAMP Primary assay EC50 GIP-R (2nd) [1] [nM] | cAMP Mean pM GLP-1R [2] [pM] | cAMP Primary assay EC50 GLP-1R n1 [2] [nM] | cAMP Primary assay EC50 GLP-1R n2 [2] [nM] | cAMP Primary assay EC50 Gluc-R [3] [nM] | cAMP Primary assay EC50 Gluc-R (2nd) [3] [nM]
1 | H[Aib]EGS[αMeF]TSDV[αMeS]S[αMeF]LEGEAAK([Ahx-Dodecanoyl(12-OPh(4-COOH))])E[αMeF]IA[αMeF]VV[αMeK]GG-NH2 (N-terminus assumed; SMILES CC[C@H](C)[C@H](NC(=O)[C@](C)(Cc1ccccc1)NC(=O)[C@H](CCC(=O)O)NC(=O)[C@H](CCCCNC(=O)CCCCCNC(=O)CCCCCCCCCCCOc1ccc(C(=O)O)cc1)NC(=O)[C@H](C)NC(=O)[C@H](C)NC(=O)[C@H](CCC(=O)O)NC(=O)CNC(=O)[C@H](CCC(=O)O)NC(=O)[C@H](CC(C)C)NC(=O)[C@](C)(Cc1ccccc1)NC(=O)[C@H](CO)NC(=O)[C@](C)(CO)NC(=O)[C@@H](NC(=O)[C@H](CC(=O)O)NC(=O)[C@H](CO)NC(=O)[C@@H](NC(=O)[C@](C)(Cc1ccccc1)NC(=O)[C@H](CO)NC(=O)CNC(=O)[C@H](CCC(=O)O)NC(=O)C(C)(C)NC(=O)[C@@H](N)Cc1c[nH]cn1)[C@@H](C)O)C(C)C)C(=O)N[C@@H](C)C(=O)N[C@@](C)(Cc1ccccc1)C(=O)N[C@H](C(=O)N[C@H](C(=O)N[C@@](C)(CCCCN)C(=O)NCC(=O)NCC(N)=O)C(C)C)C(C)C) [SEQ ID NO 140] | 27 | 27 | 4.9 | 0.0059 | 0.0039 | 27 | 27
2 | H[Aib]EGS[αMeF]TSDV[αMeS]S[αMeF]LEGEAAK([γGlu-γGlu-γGlu-Dodecanoyl(12-OPh(4-COOH))])E[αMeF]IA[αMeF]VV[αMeK]GG-NH2 (N-terminus assumed; SMILES CC[C@H](C)[C@H](NC(=O)[C@](C)(Cc1ccccc1)NC(=O)[C@H](CCC(=O)O)NC(=O)[C@H](CCCCNC(=O)CC[C@H](NC(=O)CC[C@H](NC(=O)CC[C@H](NC(=O)CCCCCCCCCCCOc1ccc(C(=O)O)cc1)C(=O)O)C(=O)O)C(=O)O)NC(=O)[C@H](C)NC(=O)[C@H](C)NC(=O)[C@H](CCC(=O)O)NC(=O)CNC(=O)[C@H](CCC(=O)O)NC(=O)[C@H](CC(C)C)NC(=O)[C@](C)(Cc1ccccc1)NC(=O)[C@H](CO)NC(=O)[C@](C)(CO)NC(=O)[C@@H](NC(=O)[C@H](CC(=O)O)NC(=O)[C@H](CO)NC(=O)[C@@H](NC(=O)[C@](C)(Cc1ccccc1)NC(=O)[C@H](CO)NC(=O)CNC(=O)[C@H](CCC(=O)O)NC(=O)C(C)(C)NC(=O)[C@@H](N)Cc1c[nH]cn1)[C@@H](C)O)C(C)C)C(=O)N[C@@H](C)C(=O)N[C@@](C)(Cc1ccccc1)C(=O)N[C@H](C(=O)N[C@H](C(=O)N[C@@](C)(CCCCN)C(=O)NCC(=O)NCC(N)=O)C(C)C)C(C)C) [SEQ ID NO 139] | 26 | 26 | 25.5 | 0.029 | 0.022 | 26 | 26
